Results: patent publication US9976134B2, “Thermolysin variants” (Danisco US Inc., priority 2007, dated 2018)

How the values were obtained:
[1] = TIDE 2X 0.78 g/l, 6 gpg, pH 8.2, 30 min at 20°C, A405; variant vs wild-type thermolysin at same protein concentration
Method: Thermolysin containing protease samples were obtained from filtered broth of cultures grown in microtiter plates for 3 days at 37° C. with shaking at 280 rpm under humidified aeration.
• Thermolysin containing culture supernatants (˜100-200 μg protein per ml) • TIDE® 2× (nil enzymes) detergent (P&G) • Dilution Buffer (10 mM NaCl, 0.1 mM CaCl2, 0.005% TWEEN®-80) The equipment used was a Biomek FX Robot (Beckman Coulter), a SpectraMAX MTP Reader (type 340; Molecular Devices), and an iEMS incubator/shaker (Thermo/Labsystems). MTPs were obtained from Costar (type 9017). TIDE® 2× Liquid Detergent Preparation (US Conditions):
Milli-Q water was adjusted to 6 gpg water hardness using a (Ca/Mg 3:1) hardness stock solution (282.3 g/L CaCl2.2H20, 130.1 g/L MgCl2.6H2O), 0.78 g/1 detergent TIDE® 2× was added, and the detergent solution was stirred vigorously for at least 15 minutes. Then, 5 mM HEPES was added and the pH adjusted to 8.2.
Microswatches of ¼ inch circular diameter were obtained from CFT (Vlaardingen, The Netherlands).
Two microswatches were placed vertically into each well of a 96-well microtiter plate to expose the whole surface area (i.e., not flat on the bottom of the well).
The incubator was set to 20° C. The filtered culture broth samples were tested at an appropriate concentration by dilution with a mixture of 10 mM NaCl, 0.1 mM CaCl2, 0.005% TWEEN®-80 solution. The detergent solution was prepared as described above. Then, 190 μl of detergent solution were added to each well of the MTP, containing microswatches. To this mixture, 10 μl of diluted enzyme solution were added to each well (to provide a total volume of 200 μl/well). The MTP was covered with a plate seal and placed in an incubator for 30 minutes at 20° C., with agitation at 1400 rpm (iEMS incubator). Following incubation under the appropriate conditions, 100 μl of solution from each well was removed and placed into a new MTP. Subsequently this MTP, containing 100 μl of solution/well, was read at 405 nm in a MTP-Reader. Blank controls, containing 2 microswatches/well and detergent, without the addition of thermolysin containing samples, were also included in the test.
The observed absorbance value was corrected for the blank value (obtained after incubation of microswatches in the absence of added enzyme). The resulting absorbance was a measure for the hydrolytic activity. For each sample (thermolysin or a variant) the performance index (PI) was calculated. The performance index is a comparison of the performance of the variant (actual value) and the standard thermolysin enzyme (theoretical value) at the same protein concentration. In addition, the theoretical values were calculated, using the parameters of the Langmuir equation of the standard enzyme.
C. Stability Assay in the Presence of Detergent
In this example, experiments were conducted to determine the stain removal performance of various singly substituted thermolysin (also referred to herein as Proteinase-T or PrT) variants. As described in Example 1, the stain cleaning performance of thermolysin variants was done utilizing a blood/milk/ink (BMI) microswatch assay. Briefly the cleaning performance of chosen single-substitution thermolysin variants was assessed in a TIDE® 2× microswatch assay.

[2] = Stability assay in 25% TIDE 2X detergent with DTPA (residual Abz-AGLA-Nba protease activity); format: physicochemical; details: 60 min at 32°C; variant residual AGLA activity divided by wild-type residual activity
How it was run: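 Thermolysin variant culture supernatants stressed in TIDE 2× detergent, with or without DTPA: 60 min at 32° C or 180 min at 50° C. Residual versus unstressed activity on Abz-AGLA-Nba read kinetically at 25° C (Ex 350/Em 420). Performance index is variant residual activity divided by wild-type thermolysin residual activity.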

[3] = Stability assay in 25% TIDE 2X detergent without DTPA (residual Abz-AGLA-Nba protease activity); format: physicochemical; details: 180 min at 50°C; variant residual AGLA activity divided by wild-type residual activity
Method: The stability of thermolysin and variants thereof was measured after incubation under defined conditions in the presence of 25% TIDE® 2× detergent. The initial and residual activity was determined.
MTPs were obtained from Costar (type 9017) and from Greiner (black plate, type 655076). Test Method Unstressed Conditions:
First, 20 μl thermolysin containing culture supernatant was diluted with 180 μl MES assay buffer. Then, 20 μl diluted supernatant was diluted further with 180 μl MES assay buffer. Subsequently 10 μl of this dilution was transferred into 190 μl AGLA-substrate solution in a pre-warmed plate (Greiner 655076) at 25° C. Any air bubbles present were blown away and the plate was measured according to the AGLA protease assay protocol described below.
First, 20 μl of culture supernatant was diluted with 180 μl 27.5% TIDE®+detergent solution and placed in the iEMS shaker. The plate covered with a plate seal was incubated for a total of 60 minutes at 32° C. at 900 rpm. In addition, 20 μl of culture supernatant was diluted with 180 μl 27.5% TIDE®−solution and placed in the iEMS shaker. This plate covered with a plate seal was incubated for a total of 180 minutes at 50° C. at 900 rpm.
Subsequently after the respective incubations, 20 μl of either of these solutions were diluted with 180 μl MES assay buffer and 10 μl of this dilution were diluted with 190 μl AGLA-substrate solution in a pre-warmed plate (Greiner 655076) at 25° C.
Fluorescence measurements were taken at excitation of 350 nm and emission of 420 nm. The spectrofluorometer software calculated the reaction rates (=slope) of the increase in fluorescence for each well to a linearly regressed line of (milli-) RFU/min. The ratio of the residual and initial AGLA activity was used to express the 25% TIDE® 2× stability as follows: Percentage of residual activity=[slope of stressed]*100/[slope of unstressed]
For each sample (thermolysin and variants thereof) the performance index was calculated by dividing the residual activity of the variant by the residual activity of thermolysin. The performance index compared the stability of the variant and the standard thermolysin enzyme (e.g., wild type or parental enzyme), determined under the same conditions.
In these experiments, the liberation of Abz-AG by protease cleavage of Abz-AGLA-Nba was monitored by fluorescence spectrometry (Ex. 350/Em. 420). The rate of appearance of Abz-AG was a measure of proteolytic activity.
The Abz-AGLA-Nba assay solution was prepared by adding 1 ml of the Abz-AGLA-Nba stock to 19 ml MES substrate buffer and mixed well for at least 2 minutes. Subsequently the thermolysin or variants thereof containing culture supernatants were diluted with MES assay buffer to a concentration of 1-6 μg protein per ml.
The assay was performed by adding 10 μl of diluted protease solution to each well, followed by the addition of 190 μl Abz-AGLA-Nba assay solution that was pre-equilibrated for at least 15 minutes at 25° C. The solutions were vigorously mixed, and the liberation of Abz-AG by protease cleavage of Abz-AGLA-Nba was monitored by fluorescence spectrometry at 25° C. in kinetic mode with excitation set at 350 nm and emission set at 420 nm. The rate of appearance of Abz-AG was a measure of proteolytic activity in the samples. The protease activity was expressed as RFU (relative fluorescence units·min^−1).
As described in Example 1, the stability of thermolysin variants was measured by determining the AGLA activity before and after incubation in the presence of TIDE® 2× heavy duty liquid (HDL) detergent at an elevated temperature. The tables contain the relative stability values compared to wild-type thermolysin, which is the quotient of the variant residual activity divided by the wild-type residual activity. A value greater than one indicates higher stability in the presence of detergent. […]

Molecule | PI (performance index), stain removal [1] | PI (relative stability), 25% TIDE 2X with DTPA [2] | PI (relative stability), 25% TIDE 2X without DTPA [3]
Y151D: single-substitution thermolysin variant (SEQ ID NO:3 numbering) (protein, listed as Geobacillus caldoproteolyticus) ITGTSTVGVGRGVLGDQKNINTTYSTYYYLQDNTRGNGIFTYDAKYRTTLPGSLWADADNQFFASYDAPAVDAHYYAGVTYDYYKNVHNRLSYDGNNAAIRSSVHYSQGYNNAFWNGSQMVYGDGDGQTFIPLSGGIDVVAHELTHAVTDDTAGLIYQNESGAINEAISDIFGTLVEFYANKNPDWEIGEDVYTPGISGDSLRSMSDPAKYGDPDHYSKRYTGTQDNGGVHINSGIINKAAYLISQGGTHYGVSVVGIGRDKLGKIFYRALTQYLTPTSNFSQLRAAAVQSATDLYGSTSQEVASVKQAFDAVGVK | 1.08 | 1.12 | –
Y151M: single-substitution thermolysin variant (SEQ ID NO:3 numbering) (protein, listed as Geobacillus caldoproteolyticus) ITGTSTVGVGRGVLGDQKNINTTYSTYYYLQDNTRGNGIFTYDAKYRTTLPGSLWADADNQFFASYDAPAVDAHYYAGVTYDYYKNVHNRLSYDGNNAAIRSSVHYSQGYNNAFWNGSQMVYGDGDGQTFIPLSGGIDVVAHELTHAVTDMTAGLIYQNESGAINEAISDIFGTLVEFYANKNPDWEIGEDVYTPGISGDSLRSMSDPAKYGDPDHYSKRYTGTQDNGGVHINSGIINKAAYLISQGGTHYGVSVVGIGRDKLGKIFYRALTQYLTPTSNFSQLRAAAVQSATDLYGSTSQEVASVKQAFDAVGVK | 1.06 | 1.09 | –
Y151Q: single-substitution thermolysin variant (SEQ ID NO:3 numbering) (protein, listed as Geobacillus caldoproteolyticus) ITGTSTVGVGRGVLGDQKNINTTYSTYYYLQDNTRGNGIFTYDAKYRTTLPGSLWADADNQFFASYDAPAVDAHYYAGVTYDYYKNVHNRLSYDGNNAAIRSSVHYSQGYNNAFWNGSQMVYGDGDGQTFIPLSGGIDVVAHELTHAVTDQTAGLIYQNESGAINEAISDIFGTLVEFYANKNPDWEIGEDVYTPGISGDSLRSMSDPAKYGDPDHYSKRYTGTQDNGGVHINSGIINKAAYLISQGGTHYGVSVVGIGRDKLGKIFYRALTQYLTPTSNFSQLRAAAVQSATDLYGSTSQEVASVKQAFDAVGVK | 1.29 | 1.03 | –
Y151H: single-substitution thermolysin variant (SEQ ID NO:3 numbering) (protein, listed as Geobacillus caldoproteolyticus) ITGTSTVGVGRGVLGDQKNINTTYSTYYYLQDNTRGNGIFTYDAKYRTTLPGSLWADADNQFFASYDAPAVDAHYYAGVTYDYYKNVHNRLSYDGNNAAIRSSVHYSQGYNNAFWNGSQMVYGDGDGQTFIPLSGGIDVVAHELTHAVTDHTAGLIYQNESGAINEAISDIFGTLVEFYANKNPDWEIGEDVYTPGISGDSLRSMSDPAKYGDPDHYSKRYTGTQDNGGVHINSGIINKAAYLISQGGTHYGVSVVGIGRDKLGKIFYRALTQYLTPTSNFSQLRAAAVQSATDLYGSTSQEVASVKQAFDAVGVK | 1.17 | 1.11 | –
Y151E: single-substitution thermolysin variant (SEQ ID NO:3 numbering) (protein, listed as Geobacillus caldoproteolyticus) ITGTSTVGVGRGVLGDQKNINTTYSTYYYLQDNTRGNGIFTYDAKYRTTLPGSLWADADNQFFASYDAPAVDAHYYAGVTYDYYKNVHNRLSYDGNNAAIRSSVHYSQGYNNAFWNGSQMVYGDGDGQTFIPLSGGIDVVAHELTHAVTDETAGLIYQNESGAINEAISDIFGTLVEFYANKNPDWEIGEDVYTPGISGDSLRSMSDPAKYGDPDHYSKRYTGTQDNGGVHINSGIINKAAYLISQGGTHYGVSVVGIGRDKLGKIFYRALTQYLTPTSNFSQLRAAAVQSATDLYGSTSQEVASVKQAFDAVGVK | 1.11 | 1.10 | –
Y151S: single-substitution thermolysin variant (SEQ ID NO:3 numbering) (protein, listed as Geobacillus caldoproteolyticus) ITGTSTVGVGRGVLGDQKNINTTYSTYYYLQDNTRGNGIFTYDAKYRTTLPGSLWADADNQFFASYDAPAVDAHYYAGVTYDYYKNVHNRLSYDGNNAAIRSSVHYSQGYNNAFWNGSQMVYGDGDGQTFIPLSGGIDVVAHELTHAVTDSTAGLIYQNESGAINEAISDIFGTLVEFYANKNPDWEIGEDVYTPGISGDSLRSMSDPAKYGDPDHYSKRYTGTQDNGGVHINSGIINKAAYLISQGGTHYGVSVVGIGRDKLGKIFYRALTQYLTPTSNFSQLRAAAVQSATDLYGSTSQEVASVKQAFDAVGVK | – | 1.23 | 1.17
